Data as given in article PMC9482650, “Quantitative fragmentomics allow affinity mapping of interactomes” (Nature Communications, 2022).

T1: TIAM2, Q8IVF5
T1 sequence (Q8IVF5 885-986, limits assumed, looked up): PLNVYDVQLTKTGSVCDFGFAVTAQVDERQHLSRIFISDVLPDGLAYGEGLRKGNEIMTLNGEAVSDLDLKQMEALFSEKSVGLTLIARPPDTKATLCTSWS

T2: LRRC7, Q96NW7
T2 sequence (Q96NW7 1440-1537, limits assumed, looked up): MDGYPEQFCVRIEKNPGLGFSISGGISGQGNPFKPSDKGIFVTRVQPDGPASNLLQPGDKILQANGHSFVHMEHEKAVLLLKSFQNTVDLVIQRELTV

T3: PARD3B_1, Q8TEW8
T3 sequence (Q8TEW8 196-299, limits assumed, looked up): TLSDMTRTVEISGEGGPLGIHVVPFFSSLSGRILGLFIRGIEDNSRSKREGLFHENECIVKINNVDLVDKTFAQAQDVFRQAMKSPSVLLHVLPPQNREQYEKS

T4: SNTG1, Q9NSN8
T4 sequence (Q9NSN8 52-150, limits assumed, looked up): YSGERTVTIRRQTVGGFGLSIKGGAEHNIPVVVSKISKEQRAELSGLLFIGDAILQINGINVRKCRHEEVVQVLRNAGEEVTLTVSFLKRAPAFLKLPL

T5: NHERF3_1, Q5T2W1
T5 sequence (Q5T2W1 4-100, limits assumed, looked up): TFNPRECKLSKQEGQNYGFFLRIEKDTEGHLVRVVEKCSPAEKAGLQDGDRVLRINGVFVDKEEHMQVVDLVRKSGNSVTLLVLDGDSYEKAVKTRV

T6: NHERF3_3, Q5T2W1
T6 sequence (Q5T2W1 238-333, limits assumed, looked up): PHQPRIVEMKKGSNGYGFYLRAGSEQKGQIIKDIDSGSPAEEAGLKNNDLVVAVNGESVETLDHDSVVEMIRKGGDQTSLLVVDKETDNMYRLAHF

T7: MPP6, Q9NZW5
T7 sequence (Q9NZW5 125-219, limits assumed, looked up): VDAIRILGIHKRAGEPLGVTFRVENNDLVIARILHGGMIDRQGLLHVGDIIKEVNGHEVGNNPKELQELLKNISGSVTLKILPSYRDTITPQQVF

T8: SNTG2, Q9NY99
T8 sequence (Q9NY99 68-166, limits assumed, looked up): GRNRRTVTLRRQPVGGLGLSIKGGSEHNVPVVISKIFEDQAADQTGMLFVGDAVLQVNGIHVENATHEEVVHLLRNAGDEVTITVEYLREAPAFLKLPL


Columns and labels:
Assay in all cases: holdup assay
Set-up in all cases: key: below the threshold = too weak to quantify, mostly under pKd 3.1 to 4
Details in all cases: plain residues with an end cap or a label only (N-terminal biotin on a linker: ado-ado)
[1] = biological target: T1, TIAM2, Q8IVF5
[2] = biological target: Inadl_3, Q8NI35
[3] = biological target: MAST2, Q6P0Q8
[4] = biological target: LIMK2, P53671
[5] = biological target: T2, LRRC7, Q96NW7
[6] = biological target: T3, PARD3B_1, Q8TEW8
[7] = biological target: DLG1_3, Q12959
[8] = biological target: SCRIB_3, Q14160
[9] = biological target: T4, SNTG1, Q9NSN8
[10] = biological target: SCRIB_1, Q14160
[11] = biological target: DLG1_2, Q12959
[12] = biological target: T5, NHERF3_1, Q5T2W1
[13] = biological target: IL16_4, Q14005
[14] = biological target: PARD3_3, Q8TEW0
[15] = biological target: T6, NHERF3_3, Q5T2W1
[16] = biological target: PICK1, Q9NRD5
[17] = biological target: GRASP, Q7Z6J2
[18] = biological target: NHERF4_4, Q86UT5
[19] = biological target: LAP2, Q96RT1
[20] = biological target: Inadl_1, Q8NI35
[21] = biological target: T7, MPP6, Q9NZW5
[22] = biological target: ARHGEF12, Q9NZN5-2
[23] = biological target: PTPN3, P26045
[24] = biological target: T8, SNTG2, Q9NY99
[25] = biological target: LDB3, O75112
[26] = biological target: TJP1_3, Q07157
[27] = biological target: DLG4_2, P78352
[28] = biological target: GRIP2_6, Q9C0E4
[29] = biological target: DLG4_3, P78352
[30] = biological target: IL16_1, Q14005
Sequence of IL16_1, Q14005 (Q14005 210-306): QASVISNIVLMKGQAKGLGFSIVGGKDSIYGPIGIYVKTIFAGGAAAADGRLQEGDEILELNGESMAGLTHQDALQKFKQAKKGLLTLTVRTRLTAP

Sequence of SCRIB_1, Q14160 (Q14160 718-814): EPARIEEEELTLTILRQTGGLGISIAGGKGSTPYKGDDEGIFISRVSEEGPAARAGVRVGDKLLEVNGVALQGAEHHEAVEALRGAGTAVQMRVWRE
Sequence of MAST2, Q6P0Q8 (Q6P0Q8 1099-1202): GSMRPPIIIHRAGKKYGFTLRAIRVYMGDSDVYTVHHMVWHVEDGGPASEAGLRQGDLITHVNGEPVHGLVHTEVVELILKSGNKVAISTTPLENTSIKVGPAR
Sequence of PARD3_3, Q8TEW0 (Q8TEW0 582-685): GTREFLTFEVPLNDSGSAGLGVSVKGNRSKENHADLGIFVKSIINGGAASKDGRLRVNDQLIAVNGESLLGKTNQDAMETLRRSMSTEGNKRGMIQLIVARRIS
Sequence of PTPN3, P26045 (P26045 505-587): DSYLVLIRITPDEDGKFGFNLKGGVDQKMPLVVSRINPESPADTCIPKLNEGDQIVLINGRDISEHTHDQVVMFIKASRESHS
Sequence of ARHGEF12, Q9NZN5-2 (Q9NZN5 other isoform, or with tags, fused parts or gaps): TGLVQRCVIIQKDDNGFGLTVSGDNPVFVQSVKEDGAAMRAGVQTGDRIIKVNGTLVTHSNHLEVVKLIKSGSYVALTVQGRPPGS
Sequence of DLG4_3, P78352 (P78352 306-403): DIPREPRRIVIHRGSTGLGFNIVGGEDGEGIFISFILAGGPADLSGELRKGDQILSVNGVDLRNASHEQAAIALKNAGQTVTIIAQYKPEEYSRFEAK
Sequence of PICK1, Q9NRD5 (Q9NRD5 17-115): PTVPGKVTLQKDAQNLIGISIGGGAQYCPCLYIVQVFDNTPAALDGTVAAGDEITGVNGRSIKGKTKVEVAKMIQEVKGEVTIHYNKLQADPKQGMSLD
Sequence of LIMK2, P53671 (P53671 143-248): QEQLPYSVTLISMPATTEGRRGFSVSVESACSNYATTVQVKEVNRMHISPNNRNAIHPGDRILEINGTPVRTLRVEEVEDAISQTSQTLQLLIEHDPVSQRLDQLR
Sequence of DLG4_2, P78352 (P78352 155-259): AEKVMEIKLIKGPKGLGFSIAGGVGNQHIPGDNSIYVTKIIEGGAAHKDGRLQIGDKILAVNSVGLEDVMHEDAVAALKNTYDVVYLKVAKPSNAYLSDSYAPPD
Sequence of Inadl_1, Q8NI35 (Q8NI35 113-229): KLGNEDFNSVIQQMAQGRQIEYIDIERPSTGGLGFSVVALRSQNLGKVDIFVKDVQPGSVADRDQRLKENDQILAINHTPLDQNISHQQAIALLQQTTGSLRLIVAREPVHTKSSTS
Sequence of LAP2, Q96RT1 (Q96RT1 other isoform, or with tags, fused parts or gaps): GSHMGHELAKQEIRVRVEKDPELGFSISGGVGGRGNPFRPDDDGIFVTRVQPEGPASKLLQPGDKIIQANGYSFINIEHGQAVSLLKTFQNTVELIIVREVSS
Sequence of GRASP, Q7Z6J2 (Q7Z6J2 96-193): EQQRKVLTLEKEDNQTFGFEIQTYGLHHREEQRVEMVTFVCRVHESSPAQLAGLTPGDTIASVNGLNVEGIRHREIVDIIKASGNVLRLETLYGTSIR
Sequence of Inadl_3, Q8NI35 (Q8NI35 359-469): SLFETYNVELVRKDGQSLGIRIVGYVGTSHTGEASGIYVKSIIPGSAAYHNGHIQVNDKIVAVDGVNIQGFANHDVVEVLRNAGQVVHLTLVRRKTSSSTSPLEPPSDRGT
Sequence of DLG1_2, Q12959 (Q12959 314-412): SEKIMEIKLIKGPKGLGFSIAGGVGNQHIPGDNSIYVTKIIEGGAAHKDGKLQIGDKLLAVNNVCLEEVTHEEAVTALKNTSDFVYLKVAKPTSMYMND
Sequence of GRIP2_6, Q9C0E4 (Q9C0E4 648-740): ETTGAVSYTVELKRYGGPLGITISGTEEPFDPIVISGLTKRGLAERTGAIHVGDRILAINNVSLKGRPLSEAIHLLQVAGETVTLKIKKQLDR
Sequence of TJP1_3, Q07157 (Q07157 416-512): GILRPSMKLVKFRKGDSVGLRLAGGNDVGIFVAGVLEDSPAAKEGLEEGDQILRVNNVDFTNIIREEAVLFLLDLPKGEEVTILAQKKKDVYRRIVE
Sequence of LDB3, O75112 (O75112 1-94): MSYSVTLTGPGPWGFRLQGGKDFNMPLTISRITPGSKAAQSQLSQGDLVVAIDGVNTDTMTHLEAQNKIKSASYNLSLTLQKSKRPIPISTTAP
Sequence of DLG1_3, Q12959 (Q12959 457-571): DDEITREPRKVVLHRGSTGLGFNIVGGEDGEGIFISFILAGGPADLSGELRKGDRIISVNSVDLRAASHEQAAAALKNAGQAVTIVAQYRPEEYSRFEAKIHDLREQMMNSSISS
Sequence of IL16_4, Q14005 (Q14005 1229-1329): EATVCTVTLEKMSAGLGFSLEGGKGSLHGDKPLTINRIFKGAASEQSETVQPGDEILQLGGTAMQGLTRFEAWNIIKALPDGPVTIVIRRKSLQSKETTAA
Sequence of NHERF4_4, Q86UT5 (Q86UT5 464-550): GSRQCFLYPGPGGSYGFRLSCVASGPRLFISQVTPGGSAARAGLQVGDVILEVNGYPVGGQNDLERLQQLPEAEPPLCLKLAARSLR
Sequence of SCRIB_3, Q14160 (Q14160 999-1103): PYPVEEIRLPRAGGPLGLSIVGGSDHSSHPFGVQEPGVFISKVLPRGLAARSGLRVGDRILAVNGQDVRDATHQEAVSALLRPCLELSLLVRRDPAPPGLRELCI

Binder	pKd [1]	pKd [2]	pKd [3]	pKd [4]	pKd [5]	pKd [6]	pKd [7]	pKd [8]	pKd [9]	pKd [10]	pKd [11]	pKd [12]	pKd [13]	pKd [14]	pKd [15]	pKd [16]	pKd [17]	pKd [18]	pKd [19]	pKd [20]	further results
PDGQCTVTEV [RNF146, Q9NTX7]	below the threshold	4.11	5.28	below the threshold	3.89	below the threshold	below the threshold	4.72	4.68	4.68	5.3	below the threshold	below the threshold	below the threshold	below the threshold	below the threshold	4.7	4.02	4.22	below the threshold	pKd [21]: 3.92; pKd [22]: 4.77; pKd [23]: 4.99; pKd [24]: 3.98; pKd [25]: below the threshold; pKd [26]: below the threshold; pKd [27]: 5.07; pKd [28]: below the threshold; pKd [29]: 3.5; pKd [30]: 4.17
YYKRPVQEWV [MMP24, Q9Y5R2]	4.08	below the threshold	below the threshold	below the threshold	4.03	below the threshold	below the threshold	3.52	below the threshold	below the threshold	3.99	4.24	3.57	3.73	below the threshold	below the threshold	3.88	below the threshold	4.51	below the threshold	pKd [21]: below the threshold; pKd [22]: 3.62; pKd [23]: 3.88; pKd [24]: below the threshold; pKd [25]: below the threshold; pKd [26]: 4.34; pKd [27]: 4.03; pKd [28]: below the threshold; pKd [29]: below the threshold; pKd [30]: 3.48

Continued, in another order:

pKd [1]	pKd [2]	pKd [3]	pKd [4]	pKd [5]	pKd [6]	pKd [7]	pKd [8]	pKd [9]	pKd [10]	pKd [11]	pKd [12]	pKd [13]	pKd [14]	pKd [15]	pKd [16]	pKd [17]	pKd [18]	pKd [19]	pKd [20]	Binder	further results
below the threshold	below the threshold	5.3	below the threshold	below the threshold	below the threshold	4.54	4.33	3.62	4.17	5.21	below the threshold	below the threshold	below the threshold	below the threshold	below the threshold	4.54	3.91	3.66	below the threshold	SAKVRTVTSV [RASL11B, Q9BPW5]	pKd [21]: below the threshold; pKd [22]: 4.68; pKd [23]: 4.6; pKd [24]: 3.6; pKd [25]: below the threshold; pKd [26]: below the threshold; pKd [27]: 5.08; pKd [28]: 3.63; pKd [29]: 4.93; pKd [30]: below the threshold
below the threshold	below the threshold	4.7	below the threshold	below the threshold	below the threshold	below the threshold	below the threshold	below the threshold	below the threshold	below the threshold	below the threshold	below the threshold	below the threshold	below the threshold	below the threshold	below the threshold	below the threshold	below the threshold	below the threshold	DTTVPESEDL [MYOZ2, Q9NPC6]	pKd [21]: below the threshold; pKd [22]: below the threshold; pKd [23]: 4.25; pKd [24]: below the threshold; pKd [25]: 5.26; pKd [26]: below the threshold; pKd [27]: below the threshold; pKd [28]: below the threshold; pKd [29]: below the threshold; pKd [30]: below the threshold
below the threshold	below the threshold	3.93	below the threshold	below the threshold	3.65	below the threshold	below the threshold	below the threshold	below the threshold	below the threshold	3.94	below the threshold	below the threshold	below the threshold	below the threshold	below the threshold	below the threshold	below the threshold	below the threshold	SKSNFGSEPL [KIF17, Q9P2E2]	pKd [21]: 3.66; pKd [22]: below the threshold; pKd [23]: 3.95; pKd [24]: below the threshold; pKd [25]: below the threshold; pKd [26]: below the threshold; pKd [27]: below the threshold; pKd [28]: below the threshold; pKd [29]: below the threshold; pKd [30]: below the threshold
